# Test results as given in US7998923B2, “Bioactivation of particles” (The Regents of the University of California, priority 2002, dated 2011).
# Square brackets hold non-standard residues; d marks the D form. Cha = N[C@@H](CC1CCCCC1)C(=O)O
# Test: solubilization assay of CdSe/ZnS quantum dots with bioactivation peptides
# Format: physicochemical
# Settings: peptide coated CdSe/ZnS quantum dots, diluted from DMSO
# Procedure: A non-limiting example of the MRP is Cha-C-C-Cha-C-C-Cha-C-C-Cha (SEQ. ID. NO. 1) with Cha standing for Cyclohexyl alanine and C for cysteine. […] All synthesis used N-Boc or F-moc protecting groups and sequences may be N-acetylated and/or C-carboxylated. The bioactivation peptides are added directly onto the particles and allowed to form a good dispersion of the quantum dots in DMSO and subsequently yielded stable and highly monodisperse dilutions of the nanocrystals in water and buffer. Stability in water and buffers is enhanced by the addition of a hydrophilic sequence at the N-terminus of the Cha-C-C-Cha . . . sequence. The following sequence was used: G-S-E-S-G-G-S-E-S-G-Cha-C-C-Cha-C-C-Cha-C-C-Cha (SEQ. ID. NO. 2).
# This substitution led to aggregations of particles during the reaction and thus lack of migration on electrophoresis gels. Similarly replacing the cysteines in the binding clusters with alanine gave unstable particles that flocculate rapidly after solubilization in aqueous solvents. […]
substance,measurement,value
NH2-G-S-E-S-G-G-S-E-S-G-Cha-C-C-Cha-C-C-Cha-C-C-Cha-Carboxamide (H-GSESGGSESG[Cha]CC[Cha]CC[Cha]CC[Cha]-NH2; cysteine pairing not given here) [ChaCha E swimmer],stability in water and buffers,enhanced
